Data from the supplement of paper PMC12764529.
± gives the half width of the 95% confidence interval.

Test: folding stability dG unfold from trypsin proteolysis; higher = more stable
In short: (§1)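 Unfolding free energy was derived, per protease or combined, by relating Bayesian-fitted K50 values from sequencing counts to a sequence-predicted unfolded-state K50 and a shared folded-state K50. The underlying digests exposed cysteine-free mini-proteins under 80 residues, in a PA-tagged cDNA display construct, to trypsin and chymotrypsin at 11 threefold-diluted concentrations and to a no-protease condition. A filter kept only designs with AlphaFold2 dimer inter-PAE above 15.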

In order of rising “folding stability dG unfold” value:
1. SAGGSAGGSAGKKLKPFKVVEVKEPVKEGDVIEVENEATGELYRFTVVNGEIKIEKVKLDSAGGSAGGSAGG [r11_94_TrROS_Hall]  0.225 ± 0.053 kcal/mol
2. SAGGSAMAYLVRAELEVEGPDGRRERLELVLVAEDLPLEEALAAAREAAAELGAELVSVEVEPLEPSAGGSA [r15_550_TrMRF]  0.858 ± 0.061 kcal/mol
3. SAGGSAGGPLVLRIETPEDKVLVLVLPEEAEKLPPKELAEIAAKEFAALPGVKEVKVEIAPLPLSAGGSAGG [r6_710_TrMRF]  0.885 ± 0.058 kcal/mol
4. SAGGSADENGKPKPTLIIKIEVEHPNGQKFPLSFIFKSPEEAEEIANELANNGYEVNIRLMPLDQISAGGSA [r15_906_TrROS]  1.07 ± 0.024 kcal/mol
5. SAGGRVDVRVERVGEGAVITLLADVEDPEPLVELLEASGLPVELARIEPVRDPVTGRLLVRAVFRVPSAGGS [r16_699_TrMRF]  1.12 ± 0.069 kcal/mol
6. SAGGWRYILRQIREAAKNGEEVTINFPPGMNPSFLLSWIRKENGAEVKPITVKPNPNGYGTINIKVKSAGGS [r16_318_TrROS]  1.39 ± 0.054 kcal/mol
7. SAGGPMKPFLKNFSGPEEAIAFVNKLREELKGPVGLTLIFPDGSVIEVVDPQKLESIDNFEVIVTVSESAGG [r13_620_JUSTAS]  1.39 ± 0.039 kcal/mol
8. SPAGELVSSTFPVTVTVTVWRRLPDGTWTPVGTETFTVTVTVAGIPEEVAEALRKAAETPPPPPNLAGLLSA [r9_1192_TrMRF]  1.98 ± 0.028 kcal/mol
9. SAGGSAGGSAGGMEKLSETVTETVEVTLTSGDKTYTFTVTTTTVVLPDGTVETLEVTLQPSAGGSAGGSAGG [r11_95_JUSTAS]  2.05 ± 0.1 kcal/mol
10. SAGGSAGGSAGWGLIITIEVEGEYDPANGQWSLNIEIEIQPIRIPPPKEPPPDDNPNNDDSAGGSAGGSAGG [r17_454_TrROS]  2.27 ± 0.23 kcal/mol
11. SAGMKKTITIKIEVPEKPIRIIVEKNGKKEEITIKPGETVTIEIELEPGETLRIRIVNEDGEEFEFEIKSAG [r5_187_TrROS_Hall]  4.15 ± 0.3 kcal/mol

Test: folding stability dG unfold (combined trypsin and chymotrypsin); higher = more stable
In short: as §1

In order of falling “folding stability dG unfold” value:
1. SVDPAKEKVVLRFTVTFPVPPELGPITADELAALVREILEAFGYEIVSVTVTVEGDRVTVTVEAVFDKRGSA [r9_1134_TrMRF]  5.01 ± 0.091 kcal/mol
2. SAGGSASMVEEEVTLQKKVKSEEEALKFAEEVKESNPHVKTVEVSLEKLPDGSILVNVTIKRILKPSAGGSA [r15_726_JUSTAS]  4.21 ± 0.29 kcal/mol
3. SAGGMPIKELTAEEIAALLKEKLGVDVEIEEVKVTVERDENGNYVLRIEVKFKETNETITLEIVLPKSAGGS [r16_42_TrROS_Hall]  3.86 ± 0.14 kcal/mol
4. SAGGSAKKKKKKKKKKKKKKEKKEVVIVIKAKSKEEAEKAVKKLLEELQKKYNIPLPKNVKVIILPSAGGSA [r15_496_TrROS_Hall]  3.65 ± 0.37 kcal/mol
5. SAGGSAGGSAGENKPIKVLVFLEKEDEYYEELFEFDSPEEIEEWLKKIPKDYKVKKVIVFSAGGSAGGSAGG [r17_410_TrMRF]  3.61 ± 0.16 kcal/mol
6. SAGGSAGGSAGKKKKKKLVRVRITYKNGKKKEFVFKTKEEAEKALKEEFNIEKIEIEEIPSAGGSAGGSAGG [r17_508_TrROS_Hall]  3.43 ± 0.16 kcal/mol
7. SAGGSAAKIDPKNGTITIYNKKTGKKIKIKIKNLPPGAKVTIEIKNGKITIKVDGKTIEINIKEIKSAGGSA [r15_864_TrROS_Hall]  2.85 ± 0.29 kcal/mol
8. SAGGETRTFMFPFKPGMPLEEIIEELIDVLQKKGKDYPIEFKPIEPDPNGYMLFMATVTNNKITIFWSAGGS [r8_7_TrROS]  2.83 ± 0.17 kcal/mol
9. SAGNPDYIPIPFRVWIMRRVPPGMSKEQAKKNPDMYVMVPIPVKFYIDPDTGRIRVENPDGKTIEFPLPSAG [r5_701_TrROS]  2.68 ± 0.096 kcal/mol
10. SAGGSAGGSAGKKPPVYRLVVENEDGEKYEFEFKSLEDLKAALESEEVRKKIKKVKIEKVSAGGSAGGSAGG [r11_1047_TrROS_Hall]  2.6 ± 0.15 kcal/mol
11. SAGGSAGGSAGGKKTITVPKGAVVRITYKNGEKKEVKAGETITIEDLPEDVKIEVVKVKKSAGGSAGGSAGG [r7_968_TrROS_Hall]  2.19 ± 0.094 kcal/mol
12. SYSIDTSKIEEAAAALPPNAVAELELTANVPESGFTLKLKVTITVDPAGKVTRITFTDPATGKKIATVDVGS [r1_165_JUSTAS]  2.1 ± 0.12 kcal/mol
13. SKFKIDEIKYEPNKPYTIKVKLPDGTTIEIKYDPNKPNEVKIILTHPDGSKKEFTLPYNYPININLKVNPSA [r9_875_TrMRF]  1.95 ± 0.083 kcal/mol
14. SAGGSAGGSEFYVIKIKNPETKKEIELVFEGSEEEIKAAIEELAKKPNLKIEIKKIKVSKEELSAGGSAGGS [r12_92_TrROS_Hall]  1.89 ± 0.18 kcal/mol
15. SAGGSAGGSAGPEIELREDSLVIRVKAKEGEVIGVPEGLEVEGVVYDPSTGELTVVVRAPSAGGSAGGSAGG [r11_942_TrMRF]  1.83 ± 0.21 kcal/mol
16. SAGGSAGGSADDEVVEIVDVLPLPNRPVLVVKVRGPDGQTKVYDPATGKWLTPEEAKAALSSAGGSAGGSAG [r3_206_TrMRF]  1.61 ± 0.086 kcal/mol
17. SAMKVYIAASSPEEIEGWIEEARKAGIDGPELIFVSPDDRVYKAEIIPNTGEVKIEPVKPIEELLKELPSAG [r14_913_TrMRF]  0.955 ± 0.34 kcal/mol
18. SAGGSAGGSAGGMLSTNVTRTITLTYFDPNGSKPIETQTVTVTTFVEIFQEPVGNWTAASAGGSAGGSAGGS [r10_50_JUSTAS]  0.786 ± 0.15 kcal/mol
19. SAGAKAEPGPSGRLRIYLPDEPIELDVTEDGTVTLTFPNGEKVEFPVEKEKAALVLAELNALGAVVVPQSAG [r5_753_TrMRF]  0.712 ± 0.084 kcal/mol
20. SAGGSAGGSAGGSSSSSITTEERPVDEDSVEKTFKFPDYYVVETLDPRTGRTSVSFIPVSAGGSAGGSAGGS [r4_99_JUSTAS]  0.533 ± 0.072 kcal/mol
21. SAGGSAGGSGGMMPVTLTITPVNPPGASTSSTTIPVNFTSPEEAAAAKEKIAAELPSNATVTGSAGGSAGGS [r20_211_JUSTAS]  0.0375 ± 0.072 kcal/mol
